Experimental data reported in patent US11957762B2, “Immune tolerant and non-immune tolerant elastin-like recombinant peptides and methods of use” (University of Utah Research Foundation, priority 2015, dated 2024).
“And” between values parts separate entries of the source, which are not always exact repeats. Identical values can stand only once.

Legend:
[1] = Thermally-induced reversible phase transition (turbidity OD350 vs temperature); format: physicochemical; settings: for Tt (cooling) / Tt (heating): 25 μM in H2O
Description: Characterization of thermally-induced, reversible, inverse phase transition of iTEPs and the iTEPB-iTEPA-pOVA fusion. The phase transitions of iTEP or iTEP fusions were characterized by turbidity changes of sample solutions as a function of temperature. Specifically, the optical density at 350 nm (OD350) of a sample solution was monitored using an UV-visible spectrophotometer equipped with a multi-cell thermoelectric temperature controller (Cary 300, Varian Instruments, Walnut Creek, CA) while the solution was heated from 20° C. to 80° C. and then cooled to 20° C. at a rate of 1° C./min. The maximum first derivative of the turbidity curve of a sample was identified. The transition temperature (Tt) of the sample is the temperature that corresponds to the maximum derivative.

DC2.4 cells = test: Presentation of the CTL epitope […] by DCs (flow cytometry); format: cell-based, murine; settings: 16 h incubation with DC2.4 cells
Method: Presentation of the CTL epitope, […], by DCs. Cells of a murine DC line (DC2.4, a gift from K. Rock)^(32) were plated at 2.5×10^5/500 μL/well in 24-well plates. 500 μL of OVA, […] peptide (SEQ ID NO: 22), or iTEPB-iTEPA-pOVA NP (SEQ ID NO: 56) (iTEP-pOVA NP hereafter) were dissolved in cell culture media and added to the wells containing DCs. The cells were further cultured for 16 hrs. at 37° C. with 5% CO2 before they were collected and washed with PBS. The MHC class I complex, H-2kb/[…] presented on DC surface was stained with a PE-tagged monoclonal antibody 25-D1.16 (Biolegend, 1:100 dilution) and quantified with flow cytometry (5×10^4 events collected per sample). The data are presented as MFI normalized to the MFI of untreated DC2.4 cells.
Presentation of […] epitope vaccine by DCs. The presentation was studied as previously described (Cho et al., J Drug Target, 2015; p 1-12). The concentration of iTEP-vaccine fusions (NPs) used in this experiment was 5 μM. The results of presentation were shown as mean fluorescence intensity (MFI) of 5000 treated, live cells in a given treatment, which were normalized to the MFI value of untreated DC2.4 cells.

B3Z cells = test: B3Z CD8+ T cell hybridoma activation assay; format: cell-based; settings: DC2.4 cells pre-incubated with antigen
Method: B3Z CD8+ T cell hybridoma activation assay. B3Z cells (a gift from N. Shastri) are a CD8+ T-cell hybridoma engineered to secrete β-galactosidase when their T-cell receptors are engaged with an […]:H2K^b complex.^(33) To do this assay, 1×10^5 DC2.4 cells/well were set in 96-well plates. OVA, […] peptide (SEQ ID NO: 22), and iTEP-pOVA NP (SEQ ID NO: 56) at indicated concentrations were loaded into the cell culture for 16 hours and then washed away. 1×10^5 B3Z cells/well were added to the DC2.4 cell culture and co-cultured with DC2.4 cells for 24 hours. The cells were washed with PBS before 100 μL of lysis buffer (PBS with 100 mM 2-mercaptoethanol, 9 mM MgCl2, 0.125% NP-40) together with 0.15 mM chlorophenol red β-galactoside were added into the wells. After the plates were incubated at 37° C. for 4 hours, the reaction was stopped with 50 μL/well of 15 mM EDTA and 300 mM glycine. The OD at 570 nm was measured and the OD at 630 nm was used as reference. The OD was used as an indicator as activation status of B3Z cells.
Activation of B3Z hybridoma (CD8+T) cells. This assay was done with a protocol described previously (Cho et al., J Drug Target, 2015; p 1-12).

C57BL/6 mice = test: In vivo CTL response by ELISPOT IFN-γ assay; parameters: species or system mouse; settings: subcutaneous immunization twice, 2 nmol SIINFEKL equivalents per mouse with IFA
Description: in vivo CTL response by ELISPOT IFN-γ assay. C57BL/6 mice were immunized subcutaneously with each immunogen (2 nmol […] equivalents per mouse) together with incomplete Freunds Adjuvants (IFA; Sigma, USA) at their left flanks. The immunization was repeated at their right flanks 1 week later. At 10 days after the second immunization, mice were sacrificed, and the spleens were harvested. The spleens of the sacrificed mice were teased into single-cell suspensions and filtered through nylon mesh […]. Red blood cells were lysed by Ammonium-Chloride-Potassium (ACK) lysing buffer. The washed and resuspended single cells were counted using Contess™ Automated Cell Counter (Invitrogen, USA). Splenocytes (8×10^6/mL) were incubated in RPMI-1640 medium supplemented with 10% heat inactivated fetal calf serum, 2 mM glutamine, 100 units/mL penicillin and 100 μg/mL streptomycin (Invitrogen, USA), in a 14 mL polypropylene tissue culture tube for 48 hours, with or without […] peptide (SEQ ID NO: 22) (2.5 μg/mL). The cells were then washed and recounted. 2×10^5 live cells in 100 μL medium were then loaded into wells of 96-well Filtration plates (Millipore, USA) coated with […] of capture anti-mouse IFN-γ mAb (Clone: R4-6A2, Biolegend, USA). Triplicates were set up for each condition. Cells were discarded after 24 hours of culture and the wells were incubated with […] of detectionbiotinylated, anti-mouse IFN-γ mAb overnight (Clone: XMG1.2-Biotin, Biolegend, USA). After the unbound antibodies were washed away from the wells, the bound antibodies were detected using horseradish peroxidase (HRP Avidin, Biolegend, USA) together with 3-amino-9-ethyl-carbazole (AEC) substrate (Sigma, USA). The membranes on the bottom of the wells were peeled off, and color spots on the membrane were scanned. The spots were automatically counted using ImageJ software.
Animal immunization. C57BL/6 mice were immunized by the subcutaneous injection of 2 nmol iTEP NP vaccines and incomplete Freunds Adjuvants (IFA; Sigma, USA) at their left flanks. Immunization was repeated at their right flanks after 1 week. On day 10 after the second immunization, mice were sacrificed, and the spleens were harvested.

[2] = Hydrodynamic diameter by dynamic light scattering (DLS); format: physicochemical
Method: Characterization of the size of iTEPB-pOVA and iTEPB-iTEPA-pOVA fusions. The particle size distribution of the iTEP fusions was determined by dynamic light scattering (DLS) using a Zetasizer Nano-ZS instrument (Malvern Instruments, Malvern, UK) as previously described.^(29) The fusions were prepared at 5 μM and 25 μM in PBS and equilibrated at 37° C. for the measurement. The reported results represented the average particle size by number.
Dynamic light scattering (DLS) measurement. The measurement was carried out as previously described. iTEP, iTEP-MPBH-ABA-Sali conjugate, or PTX NP were measured at 25 μM in PBS at 37° C. using a Malvern Zetasizer Nano system (Malvern, Chester County, PA, USA).
Characterization of hydrodynamic diameters of iTEP-vaccine fusions. Hydrodynamic diameters of iTEP-vaccine fusions were determined by dynamic light scattering (DLS) using a Zetasizer Nano-ZS instrument (Malvern Instruments, Malvern, UK) as previously described (Zhao et al., Mol Pharm, 2014; 11(8):2703-12). The samples were resuspended at concentrations of 5, 25, 50, and 100 μM in PBS and sat at room temperature overnight before measurement. Some samples were kept in 5% C02 at 37° C. for 16 h before DLS measurement. Hydrodynamic diameter results of the sample of 5 μM concentration were reported because they were not affected by the used sample concentrations. Hydrodynamic diameters were presented using the size-by-number distribution approach. Z-average values and sizes-by-intensity data, however, were also reported.

For G(VPGLGAGAG)96GG [iTEPD], the “Relative Hydrophobicity” value [1] was “High”, the “(heating) Tt” value ([1]; 5 μM) was 42.3 °C and the “Tt (cooling)” value [1] was 35.20 ± 0.57 °C. The “Tt (heating)” value [1] was 38.6 °C and 38.60 ± 1.20 °C.

With SIINFEKL [reference compound] the “presentation of SIINFEKL by DCs” value (DC2.4 cells) was “much stronger”, the “activation of B3Z cells” value (B3Z cells) was “highest activity among all treatments” and the “SIINFEKL-restricted activated splenocytes (INF-γ ELISPOT)” value (C57BL/6 mice) was 60 spots per million seeded splenocytes.

B1: G(GAGVPG)70GG (protein)
chain: GVPGFGAGAGVPGFGAGAGVPGFGAGAGVPGFGAGAGVPGFGAGAGVPGFGAGAGVPGFGAGAGVPGFGAGAGVPGFGAGAGVPGFGAGAGVPGFGAGAGVPGFGAGAGVPGFGAGAGVPGFGAGAGVPGFGAGAGVPGFGAGAGVPGFGAGAGVPGFGAGAGVPGFGAGAGVPGFGAGAGVPGFGAGAGGG
For B1, the “Relative Hydrophobicity” value [1] was “Low” and the “temperature of coacervate formation” value ([1]; in H2O, tested temperature range 20-80° C.) was “did not form coacervates”.

B2: iTEPB-pOVA: a fusion of the hydrophilic iTEPB and the vaccine, soluble (SEQ ID NO: 57) (protein)
chain: GAGVPGGAGVPGGAGVPGGAGVPGGAGVPGGAGVPGGAGVPGGAGVPGGAGVPGGAGVPGGAGVPGGAGVPGGAGVPGGAGVPGGAGVPGGAGVPGGAGVPGGAGVPGGAGVPGGAGVPGGAGVPGGAGVPGGAGVPGGAGVPGGAGVPGGAGVPGGAGVPGGAGVPGGAGVPGGAGVPGGAGVPGGAGVPGGAGVPGGAGVPGGAGVPGGAGVPGGAGVPGGAGVPGGAGVPGGAGVPGGAGVPGGAGVPGGAGVPGGAGVPGGAGVPGGAGVPGGAGVPGGAGVPGGAGVPGGAGVPGGAGVPGGAGVPGGAGVPGGAGVPGGAGVPGGAGVPGGAGVPGGAGVPGGAGVPGGAGVPGGAGVPGGAGVPGGAGVPGGAGVPGGAGVPGGAGVPGGAGVPGGAGVPGGAGVPGGAGVPGCGGGGGGGGCGGGGGGGGCGGGGGGGGCGGGGGGGGCGGGGGGGGCGGGGGGGGCGGGGGGGGCGGGGGGGG
In the case of B2, the “mean diameter / size (DLS)” value ([2]; 25 μM in PBS, 37° C., by number) is reported as “less than 10 nm”.

B3: ovalbumin (protein)
chain: GSIGAASMEFCFDVFKELKVHHANENIFYCPIAIMSALAMVYLGAKDSTRTQINKVVRFDKLPGFGDSIEAQCGTSVNVHSSLRDILNQITKPNDVYSFSLASRLYAEERYPILPEYLQCVKELYRGGLEPINFQTAADQARELINSWVESQTNGIIRNVLQPSSVDSQTAMVLVNAIVFKGLWEKAFKDEDTQAMPFRVTEQESKPVQMMYQIGLFRVASMASEKMKILELPFASGTMSMLVLLPDEVSGLEQLESIINFEKLTEWTSSNVMEERKIKVYLPRMKMEEKYNLTSVLMAMGITDVFSSSANLSGISSAESLKISQAVHAAHAEINEAGREVVGSAEAGVDAASVSEEFRADHPFLFCIKHIATNAVLFFGRCVSP
notes: positive control protein antigen
In the case of B3, the “SIINFEKL-restricted activated splenocytes (INF-γ ELISPOT)” value (C57BL/6 mice) is reported as 61 spots per million seeded splenocytes.

B4: NH2-(GAGVPG)70-(…)8-COOH (protein)
chain: GGAGVPGGAGVPGGAGVPGGAGVPGGAGVPGGAGVPGGAGVPGGAGVPGGAGVPGGAGVPGGAGVPGGAGVPGGAGVPGGAGVPGGAGVPGGAGVPGGAGVPGGAGVPGGAGVPGGAGVPGGAGVPGGAGVPGGAGVPGGAGVPGGAGVPGGAGVPGGAGVPGGAGVPGGAGVPGGAGVPGGAGVPGGAGVPGGAGVPGGAGVPGGAGVPGGAGVPGGAGVPGGAGVPGGAGVPGGAGVPGGAGVPGGAGVPGGAGVPGGAGVPGGAGVPGGAGVPGGAGVPGGAGVPGGAGVPGGAGVPGGAGVPGGAGVPGGAGVPGGAGVPGGAGVPGGAGVPGGAGVPGGAGVPGGAGVPGGAGVPGGAGVPGGAGVPGGAGVPGGAGVPGGAGVPGGAGVPGGAGVPGGAGVPGGAGVPGGAGVPGGGVLPGVGGVLPGVGGVLPGVGGVLPGVGGVLPGVGGVLPGVGGVLPGVGGVLPGVGGVLPGVGGVLPGVGGVLPGVGGVLPGVGGVLPGVGGVLPGVGGVLPGVGGVLPGVGGVLPGVGGVLPGVGGVLPGVGGVLPGVGGVLPGVGGVLPGVGGVLPGVGGVLPGVGGVLPGVGGVLPGVGGVLPGVGGVLPGVGGVLPGVGGVLPGVGGVLPGVGGVLPGVGGVLPGVGGVLPGVGGVLPGVGGVLPGVGGVLPGVGGVLPGVGGVLPGVGGVLPGVGGVLPGVGGVLPGVGGVLPGVGGVLPGVGGVLPGVGGVLPGVGGVLPGVGGVLPGVGGVLPGVGGVLPGVGGVLPGVGGVLPGVGGVLPGVGGVLPGVGGVLPGVGGVLPGVGG
In the case of B4, the “hydrodynamic diameter (DLS)” value ([2]; 25 μM in PBS at 37° C.) is reported as 6.63±1.25 nm.

B5: G(GVLPGVG)28GG (protein)
chain: GGAGVPGGAGVPGGAGVPGGAGVPGGAGVPGGAGVPGGAGVPGGAGVPGGAGVPGGAGVPGGAGVPGGAGVPGGAGVPGGAGVPGGAGVPGGAGVPGGAGVPGGAGVPGGAGVPGGAGVPGGAGVPGGAGVPGGAGVPGGAGVPGGAGVPGGAGVPGGAGVPGGAGVPGGAGVPGGAGVPGGAGVPGGAGVPGGAGVPGGAGVPGGAGVPGGAGVPGGAGVPGGAGVPGGAGVPGGAGVPGGAGVPGGAGVPGGAGVPGGAGVPGGAGVPGGAGVPGGAGVPGGAGVPGGAGVPGGAGVPGGAGVPGGAGVPGGAGVPGGAGVPGGAGVPGGAGVPGGAGVPGGAGVPGGAGVPGGAGVPGGAGVPGGAGVPGGAGVPGGAGVPGGAGVPGGAGVPGGAGVPGGAGVPGGAGVPGGAGVPGGG
For B5, the “Relative Hydrophobicity” value [1] was “High”, the “Tt (cooling)” value [1] was 29.70 ± 0.05 °C and the “Tt (heating)” value [1] was 33.30 ± 0.09 °C.
